Numbering of substitutions follows the chain as printed.
T1: human AXL on the surface of tumor cells (human, UniProt P30530 26-894)
T1 construct: whole, on cells; endogenous protein of human tumor cell lines; the cell line is named under assay or readout; also called AXL on the cell surface
T1 sequence (looked up): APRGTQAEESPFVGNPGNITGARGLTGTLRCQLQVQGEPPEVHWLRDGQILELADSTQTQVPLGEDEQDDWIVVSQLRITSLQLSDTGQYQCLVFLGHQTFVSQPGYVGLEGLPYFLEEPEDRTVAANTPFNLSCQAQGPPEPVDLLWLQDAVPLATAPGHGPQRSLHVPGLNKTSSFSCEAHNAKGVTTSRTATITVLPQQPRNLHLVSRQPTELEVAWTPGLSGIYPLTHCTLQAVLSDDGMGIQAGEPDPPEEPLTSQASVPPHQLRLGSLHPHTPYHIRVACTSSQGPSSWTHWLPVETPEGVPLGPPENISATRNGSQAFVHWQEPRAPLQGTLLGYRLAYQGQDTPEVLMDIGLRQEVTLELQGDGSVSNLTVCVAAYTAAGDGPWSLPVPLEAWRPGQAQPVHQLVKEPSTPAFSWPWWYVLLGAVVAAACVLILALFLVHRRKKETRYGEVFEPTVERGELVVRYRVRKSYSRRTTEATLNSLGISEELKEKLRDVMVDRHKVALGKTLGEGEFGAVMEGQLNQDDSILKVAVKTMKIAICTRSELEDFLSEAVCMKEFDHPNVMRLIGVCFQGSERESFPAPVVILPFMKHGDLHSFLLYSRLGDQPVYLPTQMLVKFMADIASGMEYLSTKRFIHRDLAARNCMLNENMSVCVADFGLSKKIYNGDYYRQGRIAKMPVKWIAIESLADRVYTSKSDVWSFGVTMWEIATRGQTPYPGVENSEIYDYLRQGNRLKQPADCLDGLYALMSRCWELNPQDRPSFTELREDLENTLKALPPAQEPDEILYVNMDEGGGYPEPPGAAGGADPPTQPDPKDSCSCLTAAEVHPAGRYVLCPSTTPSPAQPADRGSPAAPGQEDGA

T2: extracellular domain of human AXL protein (AXL-ECD) (human, UniProt P30530 31-449)
T2 construct: expressed in HEK293T cells; coated on the ELISA plate; also called AXL-ECD protein; human AXL extracellular domain protein
T2 sequence: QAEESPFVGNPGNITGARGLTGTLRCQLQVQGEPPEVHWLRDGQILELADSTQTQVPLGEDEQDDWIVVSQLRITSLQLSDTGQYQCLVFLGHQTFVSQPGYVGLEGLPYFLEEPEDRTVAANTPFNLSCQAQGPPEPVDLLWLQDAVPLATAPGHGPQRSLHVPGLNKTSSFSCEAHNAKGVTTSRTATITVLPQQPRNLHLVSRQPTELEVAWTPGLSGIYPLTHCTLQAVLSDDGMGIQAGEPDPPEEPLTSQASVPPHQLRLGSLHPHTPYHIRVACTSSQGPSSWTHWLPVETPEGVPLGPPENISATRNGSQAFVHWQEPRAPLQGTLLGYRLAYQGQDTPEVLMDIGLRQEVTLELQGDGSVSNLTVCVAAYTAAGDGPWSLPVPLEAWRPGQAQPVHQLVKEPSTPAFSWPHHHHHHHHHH

B1: Hu002-5 (antibody, V domains shown)
VH: QVQLVQSGAEVKKPGASVKVSCKASGYPFTDFYINWVRQAPGQGLEWMGWIYPGSGNTKYNEKFKGRVTLTVDTSISTAYMELSRLRSDDTAVYYCARSTGFFDYWGQGTLVTVSS
VL: EIVLTQSPATLSLSPGERATLSCSASSSIGYMYWYQQKPGQAPRLLIYLTSNLASGIPARFSGSGSGTDYTLTISSLEPEDFAVYYCQQWSSNPPTFGQGTKLEIK
notes: humanized from mAb002c; also called Hu002c-5
B2: Hu002-18 (antibody, V domains shown)
VH: B1 VH with R38K, M48I
VL: EIVLTQSPDFQSVTPKEKVTITCSASSSIGYMYWYQQKPDQSPKLLIYLTSNLASGVPSRFSGSGSGTDYTLTINSLEAEDAATYYCQQWSSNPPTFGQGTKLEIK
notes: humanized from mAb002c; also called Hu002c-18
B3: Hu002-24 (antibody, V domains shown)
VH: B1 VH with R38K, M48I
VL: B2 VL with E1Q, L45S
notes: humanized from mAb002c; also called Hu002c-24
B4: Hu002-23 (antibody, V domains shown)
VH: B1 VH
VL: B2 VL with E1Q, L45S
notes: humanized from mAb002c; also called Hu002c-23
B5: Hu002-19 (antibody, V domains shown)
VH: B1 VH with L70M, V72R
VL: B2 VL with L45S
notes: humanized from mAb002c; also called Hu002c-19
B6: Hu002-22 (antibody, V domains shown)
VH: B1 VH with L70M, V72R
VL: B2 VL with E1Q, L45S
notes: humanized from mAb002c; also called Hu002c-22
B7: Hu002-20 (antibody, V domains shown)
VH: B1 VH
VL: B2 VL with L45S
notes: humanized from mAb002c; also called Hu002c-20
B8: Hu002-16 (antibody, V domains shown)
VH: B1 VH with L70M, V72R
VL: B2 VL
notes: humanized from mAb002c; also called Hu002c-16
B9: Hu002-4 (antibody, V domains shown)
VH: B1 VH with L70M, V72R
VL: B1 VL
notes: humanized from mAb002c; also called Hu002c-4
B10: Hu002-1 (antibody, V domains shown)
VH: B1 VH with L70M, V72R
VL: B1 VL with Y70F
notes: humanized from mAb002c; also called Hu002c-1
B11: Hu002-21 (antibody, V domains shown)
VH: B1 VH with R38K, M48I
VL: B2 VL with L45S
notes: humanized from mAb002c; also called Hu002c-21
B12: AXL107 (antibody, V domains shown)
VH: EVQLLESGGGLVQPGGSLRLSCAASGFTFSSYAMNWVRQAPGKGLEWVSTTSGSGASTYYADSVKGRFTISRDNSKNTLYLQMNSLRAEDTAVYYCAKIWIAFDIWGQGTMVTV
VL: not shown
notes: also called control antibody AXL107; AXL07
B13: mAb005c (antibody, V domains shown)
VH: QVQLQQSGPELVKPGASVKISCKASGYSFTSYYIHWVQQRPGQGLEWIGWIYPGSDNTKYNEKFKDKATLTADTSSGTAYMQLSSLTSDDSAVFYCARNYYDYDGGTWFPYWGQGTLVTVSA
VL: DIQMTQTTSSLSASLGDRVTISCRASQDINYYLNWYQQKPDGTVKLLIYYTSRLHSRVPSRFSGSGSGTDYSLTISNLEQEDIATYFCQQGNTLPWTFGGGTKLEIK
notes: also called human-mouse chimeric antibody mAb005c
B14: mAb001c (antibody, V domains shown)
VH: AVQLQESGPSLVKPSQTLSLTCSVTGDSITSGYWSWIRKFPGNKLESMGYMTYSGATYYNPSLKSRISITRDTSKNQYYLQLNSVTPEDTATYYCARGGNSYFFDYWGQGTTLTVSS
VL: DIQMTQSPASLSVSVGETVTITCRASENIYSNLAWYQLKQGKSPHLLVYAATNLADGVPSRFSGSGSGTQYSLKIISLQSEDFGTYYCQHFWGTPLTFGAGTKLELK
notes: also called human-mouse chimeric antibody mAb001c
B15: mAb001 (antibody, V domains shown)
VH: B14 VH
VL: B14 VL
notes: murine hybridoma antibody, IgG1/k; also called original murine antibody mAb001

Target: T1, human AXL on the surface of tumor cells
Assay: FACS on MDA-MB-231 cells
Method: (§1) Then the obtained solutions were incubated at 4° C. for 1 h, the cells were washed twice with PBS to remove unbound primary antibody, and then the target cells were incubated with 200 μL PE-labeled secondary antibody (2 μg/mL) at 4° C. for 30 min. The cells were washed twice with PBS to remove unbound secondary antibody. Finally, the cells were resuspended in 200 μL PBS, and the binding affinity of the test antibody to AXL on the cell surface was determined by a flow cytometer (FACSCalibur)
24 humanized antibodies in Table-6 were diluted by gradient, and their affinities to AXL, on the surface of MDA-MB-231 cells were determined by flow cytometer. The experimental method was referred to Example 8.

Row | Binder | EC50 [nM] | Highest MFI value (FACSCalibur) [MFI]
1 | B1 | 0.114 | 275
2 | B2 | 0.111 | 277
3 | B3 | 0.098 | 262
4 | B4 | 0.098 | 276
5 | B5 | 0.121 | 278
6 | B6 | 0.134 | 276
7 | B7 | 0.099 | 277
8 | B8 | 0.082 | 282
9 | B9 | 0.09 | 277
10 | B10 | 0.101 | 277
11 | B11 | 0.132 | 273

Target: T1, human AXL on the surface of tumor cells
Assay: FACS on NCI-H1299 cells
Method: as §1
AXL-high-expression lung cancer cells NCI-H1299 were used as target cells. 100 μL of the test antibody diluted in a 3-fold gradient was used as primary antibody, and mixed with 1×10⁵ NCI-H1299 cells suspended in 100 μL RPMI-1640 serum-free medium. The operation method was the same as above. Finally, the cells were resuspended in 200 μL PBS, and the binding affinity of the tested antibody to AXL on the cell surface was determined by a flow cytometer (FACSAria II).

Row | Binder | EC50 [nM] | Highest MFI value (FACSAria II) [MFI]
12 | B12 | 0.655 | 2010
13 | B13 | 0.908 | 2140
14 | B14 | 1.49 | 2370

Target: T2, extracellular domain of human AXL …
Assay: ELISA, plate-coated AXL-ECD
Method: (§2) The extracellular domain of AXL protein (AXL-ECD) was diluted to […] with the coating solution, and coated onto ELISA plate with 100 μL/well at 4° C. overnight. The excess antigen was washed off. The plate was blocked with 1% BSA at room temperature for 2 h, then each monoclonal antibody in a 3-fold dilution was added at 100 µL/well. The plate was incubated at room temperature for 1 h; the unbound antibody was washed off, and appropriate concentration of anti-mouse secondary antibody labeled with horseradish peroxidase was added at 100 µL/well. The plate was incubated at room temperature for 0.5 h. The unbound secondary antibody was washed off. TMB Substrate was added and reacted for about 15 minutes. 1N HCL was added at 50 µL/well to stop the color reaction. Then the absorbance was measured at 450 nm and the obtained data was analyzed.

Row | Binder | EC50 [nM] | Highest reading (OD450 nm)
15 | B12 | 0.075 | 3.77
16 | B13 | 0.103 | 3.78
17 | B14 | 0.092 | 3.8

Target: T2, extracellular domain of human AXL …
Assay: ELISA, AXL-ECD

Row | Binder | EC50 [nM]
18 | B15 | 0.073

Target: T1, human AXL on the surface of tumor cells
Assay: FACS on MDA-MB-231 cells, mean EC50
Method: as §1

Row | Binder | EC50 [nM]
19 | B12 | 0.433
20 | B13 | 0.4
21 | B14 | 0.84

Target: T1, human AXL on the surface of tumor cells
Assay: FACS on LCLC-103H cells
Method: as §1
The experimental method was referred to Example 8.

Row | Binder | EC50 [nM]
22 | B12 | 0.8
23 | B1 | 0.36
24 | B9 | 0.49
25 | B10 | 0.28

Target: T2, extracellular domain of human AXL …
Assay: ELISA, plate-coated AXL-ECD
Remark: another data set of the same source
Method: as §2
24 humanized antibodies in Table-6 were diluted by gradient, and their affinity to AXL-ECD protein was determined by ELISA. The experimental method was referred to Example 4.

Row | Binder | EC50 [nM] | TOP (OD450)
26 | B1 | 0.05 | 3.59
27 | B2 | 0.055 | 3.71
28 | B3 | 0.051 | 3.65
29 | B4 | 0.057 | 3.69
30 | B5 | 0.059 | 3.73
31 | B6 | 0.059 | 3.67
32 | B7 | 0.054 | 3.71
33 | B8 | 0.047 | 3.76
34 | B9 | 0.055 | 3.6
35 | B10 | 0.07 | 3.62
36 | B11 | 0.046 | 3.71

Target: T1, human AXL on the surface of tumor cells
Assay: FACS on MDA-MB-231 cells
Remark: another data set of the same source
Method: as §1

Row | Binder | Highest MFI value (FACSCalibur) [MFI]
37 | B12 | 218
38 | B13 | 208
39 | B14 | 217

From patent publication US20210214447A1 (SHANGHAI INSTITUTE OF MATERIA MEDICA CHINESE ACADEMY OF …, published 2021)
